The nanobody polyreactivity screen of Harvey et al. (2022)

Experiment: yeast display, Sf9 membrane polyspecificity reagent, FACS + sequencing; frameworks hold sequencing errors
Outline: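 Sorting gates, low and high (top ~1%), were placed on anti-HA fluorescence to track expression and on streptavidin fluorescence to track reagent binding. A clone's polyreactivity label is taken from the gate it came out of. The reagent was 10% biotinylated, detergent-solubilized Sf9 membrane, applied for 1 hour at 4 °C to galactose-induced yeast display cells.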

QVQLVESGGGLVQAGGSLRLSCAASGSIFSDNVMGWYRQAPGKERELVAAIRDGDTTNYADSVKGRFTISRDNAKNTVYLQMNCLKPEDTAVYYCAAVQASSPDYSYAYLDGDRDYWGQGTQVTVSS
polyreactivity (PSR sort gate): low polyreactivity

QVQLVESGGGLVQAGGSLRLSCASSGRIFGPNAMGWYRQAPGKERELVAAITSGGRTKYADSVKGRFTISRDNAKNTVYLQMNSLKPEDTAVYYCATTAQYYWGQGTQVTVSS
polyreactivity (PSR sort gate): high polyreactivity

QVQLVESGGGLVQAGGSLRLSCAASGNIFLFYVMGWYRQAPVKERELVAAITLSGTNTYYADSVKGRFTISRDNAKNNVYLQMNSLKPEDTAVYYCNADWWSDGYDYWGQRTQVTVSS
polyreactivity (PSR sort gate): low polyreactivity

QVQLVESGGGLVQAGGSLSLICAASGSTFNLYPMGGYRKAPGKERELVAAISRGGSTNYADSVKGRFTISRDNAKNTVYLQMNSLIPEDTAVYYCAARSWYDRYPYYSWGQGTQLTVSS
polyreactivity (PSR sort gate): high polyreactivity

QVHLVESGGGLVQAGGSLRLSCAASGLTFYPNAMGWYRQAPGKERELVAAITYSTGSTYADSVKGRFTITRDNAKNTVFLQMNSLKPEDSAVYDCAAYWSRVRYGMNYWGQGTQVTVSS
polyreactivity (PSR sort gate): high polyreactivity

QVQLVESGGGLVQAGGSLRLSCAASGSTFGGYAMGWYRQAPGKERELVAAISGSGVRTYYADSEKGRFTISRDNAKNTVYLQMNSLQPEDTAVYYCAKRVRYPGDRYYYWGQGTQVTVSS
polyreactivity (PSR sort gate): high polyreactivity

QVQLVESGGGLVQAGGSLRLSCAASGRTFWPYAMGWYRQAPGKERELLAAITSDGSTTYADSVKGRFTISRDNAKNTVYLQMNSLTPEDTAVYYCAAYGYYYYQTIPMDYWGQGTQVTVSS
polyreactivity (PSR sort gate): low polyreactivity

QVQLVESGGGLVQAGGSLRLSCAASGITFYRYAMGWYRQAPGKERELVAAITSGGGRTYYADSVKGRFTISRDNAKNTVYLQMNSLKPEDTAVYYCNAADYTAYGQGEYWGQGTQVTVSS
polyreactivity (PSR sort gate): high polyreactivity

QVQLVESGGGLVQAGGSLRLSCAASGRTFYVYTMGWYRQAPGKERELVAAITSGGSTNYADSVKGRFTISRDNAKNTVYLQMNSLKPEDTAVYYCAARVSTVFKRYYYCGQGTQVTVSS
polyreactivity (PSR sort gate): high polyreactivity

QVQLVESGGGLVQAGGILRLICAAYGRILAYNSMGWYRQAPGKQRELVAGISWSGGSTYYADSVKGRFTISRDNAKNTVYLQMNSLKPEDTAVYYCAKTPYYRYAKQRYTSSHDYWGQGTQVTVSS
polyreactivity (PSR sort gate): high polyreactivity

QVQHVESGGGLVQAGGSLRLSCAASGSIFVFYAMGWYRQAHGKEREFVASITSSGGSTYYADSVKGRFTISRDNAKNTVYLQMNSLKPEDTAVYYCAARKYRNPYYYRYYYWGQGTQVTVSS
polyreactivity (PSR sort gate): high polyreactivity

QVQLVESGGGLVQAGGSLRLSCAASGSIFDNAMGWYRQAPGKERELVASIDQSGGSTYYADSVMGRFTISRDNAKNTVYLQMNSLKPEDTAVYYCAADSFTGYPYEMDYWGQGTQVTVSS
polyreactivity (PSR sort gate): low polyreactivity

QDQLVESGGGLVQAGGSLRLSCAASGLTFAIYAMGCYRPAPGKERELVAGITWNTGRTYYADSVKGRFTISRDNAKNTVYLQMNSLNPEDTAVYYFAGRFVSRSVRGEATKYDYWGQGTQVTVSS
polyreactivity (PSR sort gate): high polyreactivity

QVQLVESGGGLVQAGGSLRLICAASGRTFRIYAMGWYRQEPGKDRQLVAAIRWSGGTTYYADSVKGRFTISRDYAKNTVYLQMNSLKPDDTSVYYCAADSTNRFDYWGQGTQVTVSS
polyreactivity (PSR sort gate): high polyreactivity

QVQLLESCGGLVQAGGSLRLSCAASGSILTQYAMGWYRQAPGKERELVAAITGRGGSTYYADSVKGRFTISRDIAMYTVYLEMNSLKPEDTAVFYCAAEERYAYRYDYWGQGTQVTVSS
polyreactivity (PSR sort gate): high polyreactivity

QVQLVESGGGLVQAGGSLRLSCAASGRIFSTNAMGWYIQAPGKERELVAAISKNGGRTYYADSVKWRFTISRDNAKNTVYLQMNSLKPEDTAVYYCAAPVKPVTGYYPYDYWGQGTQVTVSS
polyreactivity (PSR sort gate): high polyreactivity

QVQLVESGGGLVQAGGSLRLSCAASGYTLDNYAMGWYRQAPGKERELVAGITFSGGSTFYADSVKGRFTISRDNAKNTVYLQMNSLKPEDTAVYYCAADAEFQADHKYGYWGQGSQVTVSS
polyreactivity (PSR sort gate): low polyreactivity

QVQLVESGGCLVQAGGSLRLSCAASGIIFTLYAMGWYRQAPGKEREIVAAISGSGGSTYYADSVKGRFTISRDNAKNTVYLQMNSLKPEDTAVYYCAARGVRGTGLDSRMYYWGQGTQVTVSS
polyreactivity (PSR sort gate): high polyreactivity

QVQLVESGGGLVQAGGSLRLSCAASGFTFRRYAMGWYRQAPGKERELVAAITRDDSTNYADSVKGRFTISRDNAKNTVYLQMNSLKPEDTAVYYCAARLWYPYYYWGQGTQVTVSS
polyreactivity (PSR sort gate): high polyreactivity

QFQHVESVGGLVQAGGSLRLSCAASGRIFPYYALGWYREAPGKERELVAAISQSDGSTYYADSVKGRFTISRDNAKNTVYLQMNSLKPEDTAVYYCAKRQASYTQHRKVRGDYWGQGPQVTVSS
polyreactivity (PSR sort gate): low polyreactivity

QVQLVESGGGLVQAGGSLRLSCAASGRIFKYYAMGWYRQAPGKNRELVATISVSGANTYYADSVKGRFTISRDNAKNPVYLQMNSLKREDTAVYFCAAGYAGVSHITRTSRKSHYGYWGQGTQVTVSS
polyreactivity (PSR sort gate): high polyreactivity

QVQLVESGGGLVQAGGSLRLSCAASGYTFSYYAMGWYRQAPGKERELVARITYSGGSTYYADSVKGRFTISRDNAKNTVYLQMNSLKPEDTAVYFCAARLRYPYWYYNWGQGTQVTVSS
polyreactivity (PSR sort gate): high polyreactivity

QVQLVESGRALVQAGGSLRLSCAASGRICGIYSMGWNRQAPGKEREFVAAISDRSGSRTYYADSVKGRFTISRDNAKNTVYLQMNSLKPEDTAVYYCNARHQYQTLYPGGYYWGQGTQVTVSS
polyreactivity (PSR sort gate): high polyreactivity

QVQLVESGGGLVQAGGSLRLSCAASGRTFYRYVMGWYRQAPGKERELVATITNGGSTNYADSVKGRFTISRYNAKNTVYLQMNSLKPEDTAVYYCAADYPGYVGWPYSYEYYYWGQCTQVTVSS
polyreactivity (PSR sort gate): low polyreactivity

QVQLVESGGGLVQAGGSLRLSCAASGRIFGVNAMGWYRQAPGNERELVAHIRSSGASTYYADSVKGRFTISRDNAKNTVYLQMNSLKPEDTAVYYCARDYFVDGPGYDYWGQGTQVTVSS
polyreactivity (PSR sort gate): low polyreactivity

QVQLVESGGGLVQAGGSLRLTCAASGYTFGHYAMGWYRQAPGKERELVAVITSGGSTNYADSVKGRFTISRDNAKNTVYLQMNSLKPEDTAVYYCAADLYFYYVWIRDYWGQGTQVTVSS
polyreactivity (PSR sort gate): low polyreactivity

QVQLVESGGGLVQAGGSLRLSCAASGFIFTSYAMGWYRQAPGKERELVAAISKRGGSTYYADSVKGRFTISRDNAKNTVYLQMNSLKPEDTAVYYCATRYPQPYSPGYTYDYWGLGTQVTVSS
polyreactivity (PSR sort gate): high polyreactivity

QDQLVESGGGLVQAGGSLRLSCAASGSTFTRNSMGRYRQAPWKERELVAVISSRGGRTYYADSVKGRFTISRDNAKNSVYLPMNSLKPDDTAVYYCAARYVIPLGNTYDYWGQGTQVNVSS
polyreactivity (PSR sort gate): high polyreactivity

QVQLVESGGGLVQAGGSLRLSCAASGRTFGRYAMGWYRPAPGKERELVAAIRWTGGGTYYADSVKGRFTISRDNAKNTVYLQMNSLKPEDTAVYYCAADDYYYSVYRYEYWGEGTQVTVSS
polyreactivity (PSR sort gate): high polyreactivity

QGQLEESGGGLVQAGGSLRLSCAASGRTFGPYAMGRYRQAPGKERELVAAIRSAGSTYYADSVKGRFTISRDNAKNTVYLQMISLKPEDTAVYYCADDIARHLTGFAYYRLDYWGQGTQVTVSS
polyreactivity (PSR sort gate): low polyreactivity

QVQLVESGGGLVQAGGSLRLSCAASGRIFYRYAMGWYRQAPGKERELVATISSGASTNYADSVKGRFTISRDNAKNTVYVQMNSLKPEDTADYYCARLSLRYSYVSRDYWGHGTQVTVSS
polyreactivity (PSR sort gate): low polyreactivity
